Data taken from patent US20210238260.
Changes are numbered by the printed parent chain. Names and notes keep the numbering of the source.

B1: FIXa-Y155F/R338E/T343R/R403E (protein)
chain 1: YNSGKLEEFVQGNLERECMEEKCSFEEAREVFENTERTTEFWKQYVDGDQCESNPCLNGGSCKDDINSYECWCPFGFEGKNCELDVTCNIKNGRCEQFCKNSADNKVVCSCTEGYRLAENQKSCEPAVPFPCGRVSVSQTSKLTR
chain 2: VVGGEDAKPGQFPWQVVLNGKVDAFCGGSIVNEKWIVTAAHCVETGVKITVVAGEHNIEETEHTEQKRNVIRIIPHHNYNAAINKYNHDIALLELDEPLVLNSYVTPICIADKEYTNIFLKFGSGYVSGWGRVFHKGRSALVLQYLRVPLVDRATCLESTKFRIYNNMFCAGFHEGGRDSCQGDSGGPHVTEVEGTSFLTGIISWGEECAMKGKYGIYTKVSEYVNWIKEKTKLT
B2: FIXa-R318Y/R338E/R403E/E410N (mature FIX numbering) (protein)
chain 1: B1 chain 1
chain 2: B1 chain 2 with R138Y, R163T, E230N
B3: FIXa-R318Y/R403E/E410N (mature FIX numbering) (protein)
chain 1: B1 chain 1
chain 2: B1 chain 2 with R138Y, E158R, R163T, E230N
B4: FIXa K247N/N249S/R338E/R403E/E410N (protein)
chain 1: B1 chain 1
chain 2: B1 chain 2 with K67N, N69S, R163T, E230N
B5: FIXa Y155F/R318Y/T343R/R403E/E410N (protein)
chain 1: B1 chain 1
chain 2: B1 chain 2 with R138Y, E158R, E230N
B6: FIXa Y155F/K247N/N249S/R318Y/R338E/R403E (protein)
chain 1: B1 chain 1
chain 2: B1 chain 2 with K67N, N69S, R138Y, R163T
B7: FIXa-Y155F/R338E/T343R/R403E/E410S (protein)
chain 1: B1 chain 1
chain 2: B1 chain 2 with E230S
B8: FIXa-A103N/N105S/Y155F/R318Y/R338E/R403E/E410N (mature FIX numbering) (protein)
chain 1: B1 chain 1 with A103N, N105S
chain 2: B1 chain 2 with R138Y, R163T, E230N
B9: FIXa K247N/N249S/R318Y/R338E/R403E (protein)
chain 1: B1 chain 1
chain 2: B1 chain 2 with K67N, N69S, R138Y, R163T
B10: FIXa R318Y/R338E/T343R/R403E (protein)
chain 1: B1 chain 1
chain 2: B1 chain 2 with R138Y
B11: FIXa-Y155F/R318Y/R338E/E410N (mature FIX numbering) (protein)
chain 1: B1 chain 1
chain 2: B1 chain 2 with R138Y, R163T, E223R, E230N
B12: FIXa R318Y/R338E/T343R/E410N (protein)
chain 1: B1 chain 1
chain 2: B1 chain 2 with R138Y, E223R, E230N
B13: FIXa R318Y/R338E/Y345A/R403E/E410N (protein)
chain 1: B1 chain 1
chain 2: B1 chain 2 with R138Y, R163T, Y165A, E230N
B14: FIXa-R318Y/R338E/T343R/R403E/E410S (protein)
chain 1: B1 chain 1
chain 2: B1 chain 2 with R138Y, E230S
B15: FIXa-Y155F/N260S/R338E/T343R/R403E (protein)
chain 1: B1 chain 1
chain 2: B1 chain 2 with N80S
B16: FIXa-R338E/T343R/E410N (protein)
chain 1: B1 chain 1
chain 2: B1 chain 2 with E223R, E230N
B17: FIXa K247N/N249S/R318Y/R403E/E410N (protein)
chain 1: B1 chain 1
chain 2: B1 chain 2 with K67N, N69S, R138Y, E158R, R163T, E230N
B18: FIXa-R338E/T343R/R403E (protein)
chain 1: B1 chain 1
chain 2: B1 chain 2
B19: FIXa Y155F/K247N/N249S/R318Y/R403E/E410N (protein)
chain 1: B1 chain 1
chain 2: B1 chain 2 with K67N, N69S, R138Y, E158R, R163T, E230N
B20: FIXa Y155F/R318Y/R338E/T343R/E410N (protein)
chain 1: B1 chain 1
chain 2: B1 chain 2 with R138Y, E223R, E230N
B21: FIXa-K228N/R318Y/E410N (mature FIX numbering) (protein)
chain 1: B1 chain 1
chain 2: B1 chain 2 with K48N, R138Y, E158R, R163T, E223R, E230N
B22: FIXa-D104N/K106S/Y155F/R318Y/R338E/R403E/E410N (mature FIX numbering) (protein)
chain 1: B1 chain 1 with D104N, K106S
chain 2: B1 chain 2 with R138Y, R163T, E230N
B23: FIXa-Y155F/K247N/N249S/R338E/T343R/R403E/E410N (protein)
chain 1: B1 chain 1
chain 2: B1 chain 2 with K67N, N69S, E230N
B24: FIXa-R318Y/R338E/E410N (mature FIX numbering) (protein)
chain 1: B1 chain 1
chain 2: B1 chain 2 with R138Y, R163T, E223R, E230N
B25: FIXa-Y155F/I251S/R338E/T343R/R403E (protein)
chain 1: B1 chain 1
chain 2: B1 chain 2 with I71S
B26: FIXa Y155F/R318Y/R338E/T343R/R403E (protein)
chain 1: B1 chain 1
chain 2: B1 chain 2 with R138Y
B27: FIXa-Y155F/K247N/N249S/R318Y/R338E/T343R/R403E (protein)
chain 1: B1 chain 1
chain 2: B1 chain 2 with K67N, N69S, R138Y
B28: FIXa-A103N/N105S/R318Y/R338E/R403E/E410N (mature FIX numbering) (protein)
chain 1: B1 chain 1 with A103N, N105S
chain 2: B1 chain 2 with R138Y, R163T, E230N
B29: FIXa R318Y/R338E/T343R/N346D/R403E/E410N (protein)
chain 1: B1 chain 1
chain 2: B1 chain 2 with R138Y, N166D, E230N
B30: FIXa-Y155F/R318Y/R338E/R403E/E410N (mature FIX numbering) (protein)
chain 1: B1 chain 1
chain 2: B1 chain 2 with R138Y, R163T, E230N
B31: FIXa-D104N/K106S/R318Y/R338E/R403E/E410N (mature FIX numbering) (protein)
chain 1: B1 chain 1 with D104N, K106S
chain 2: B1 chain 2 with R138Y, R163T, E230N
B32: FIXa-K247N/N249S/R318Y/R338E/T343R/R403E (protein)
chain 1: B1 chain 1
chain 2: B1 chain 2 with K67N, N69S, R138Y
B33: FIXa-D203N/F205T/R318Y/E410N (mature FIX numbering) (protein)
chain 1: B1 chain 1
chain 2: B1 chain 2 with D23N, F25T, R138Y, E158R, R163T, E223R, E230N
B34: FIXa Y155F/K247N/N249S/R338E/R403E/E410N (protein)
chain 1: B1 chain 1
chain 2: B1 chain 2 with K67N, N69S, R163T, E230N
B35: FIXa-K228N/R338E/R403E (mature FIX numbering) (protein)
chain 1: B1 chain 1
chain 2: B1 chain 2 with K48N, R163T
B36: FIXa-Y155F/K247N/N249S/T343R/R403E (protein)
chain 1: B1 chain 1
chain 2: B1 chain 2 with K67N, N69S, E158R
B37: FIXa R338E/T343R/R403E/E410N (protein)
chain 1: B1 chain 1
chain 2: B1 chain 2 with E230N
B38: FIXa-D104N/K106S/R318Y/R338E/E410N (mature FIX numbering) (protein)
chain 1: B1 chain 1 with D104N, K106S
chain 2: B1 chain 2 with R138Y, R163T, E223R, E230N

Chain of Factor X, P00742 (P00742 whole entry, looked up): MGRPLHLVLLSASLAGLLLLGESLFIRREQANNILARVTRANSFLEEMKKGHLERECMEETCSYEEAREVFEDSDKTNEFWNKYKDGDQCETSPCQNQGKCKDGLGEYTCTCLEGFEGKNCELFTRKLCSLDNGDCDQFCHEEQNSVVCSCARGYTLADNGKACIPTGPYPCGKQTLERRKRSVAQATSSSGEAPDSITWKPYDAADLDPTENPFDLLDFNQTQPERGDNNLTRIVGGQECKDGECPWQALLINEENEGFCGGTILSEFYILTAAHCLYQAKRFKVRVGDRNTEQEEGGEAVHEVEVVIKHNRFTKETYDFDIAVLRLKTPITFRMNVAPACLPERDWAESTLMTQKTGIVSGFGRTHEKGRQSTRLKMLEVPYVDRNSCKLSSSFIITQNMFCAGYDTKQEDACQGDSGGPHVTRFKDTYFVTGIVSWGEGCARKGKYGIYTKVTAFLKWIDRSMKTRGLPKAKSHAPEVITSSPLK
Chain of Factor X (FX), P00742 (P00742 whole entry, looked up): as above

Protein	% of WT kcat/KM (Factor X, P00742) [%]	kcat (Factor X, P00742) [s⁻¹]	kcat/KM (Factor X, P00742) [M⁻¹ s⁻¹]	KM (Factor X (FX), P00742) [µM]	KM (FX activation by FIXa in Xase complex with FVIIIa, PC/PS vesicles, Ca2+) (Factor X, P00742) [µM]	KM (Factor X, P00742) [µM]
B1	429	5.2	2e+08	0.0289	–	–
B2	262	–	1.2e+08	–	–	–
B3	59	–	2.7e+07	–	–	–
B4	–	–	–	–	0.025	–
B5	–	–	–	–	0.034	–
B6	–	–	–	–	0.0673	–
B7	629	6.8	2.9e+08	0.0239	–	–
B8	283	–	1.3e+08	–	–	–
B9	–	–	–	–	0.0536	–
B10	–	–	–	–	0.0443	–
B11	835	–	3.7e+08	–	–	–
B12	–	–	–	–	0.0164	–
B13	180	–	8.3e+07	–	0.0188	–
B14	962	7.6	4.4e+08	0.019	–	–
B15	203	6.4	9.4e+07	0.0692	–	–
B16	–	–	–	–	–	0.0355
B17	–	–	–	–	0.111	–
B18	663	6.9	3.1e+08	0.0235	–	–
B19	–	–	–	–	0.125	–

Protein	% of WT kcat/KM (Factor X, P00742) [%]	kcat (Factor X, P00742) [s⁻¹]	kcat/KM (Factor X, P00742) [M⁻¹ s⁻¹]	KM (Factor X (FX), P00742) [µM]	KM (FX activation by FIXa in Xase complex with FVIIIa, PC/PS vesicles, Ca2+) (Factor X, P00742) [µM]	KM (Factor X, P00742) [µM]
B20	–	–	–	–	0.0256	–
B21	272	–	1.2e+08	–	–	–
B22	394	–	1.8e+08	–	–	–
B23	805	9.8	3.7e+08	0.0264	–	–
B24	770	–	3.4e+08	–	–	–
B25	651	5.9	3e+08	0.0196	–	–
B26	–	–	–	–	0.034	–
B27	630	10.6	2.9e+08	0.0365	–	–
B28	327	–	1.5e+08	–	–	–
B29	177	–	8.2e+07	–	0.067	–
B30	418	–	1.9e+08	–	–	–
B31	377	–	1.7e+08	–	–	–
B32	886	9.2	4.1e+08	0.0284	–	–
B33	88	–	3.9e+07	–	–	–
B34	–	–	–	–	0.0487	–
B35	108	–	4.8e+07	–	–	–
B36	184	4.7	8.5e+07	0.0596	–	–
B37	–	–	–	–	0.0347	–
B38	581	–	2.6e+08	–	–	–
